Measured values taken from the DeepSol protein solubility set.

assay: soluble on expression in E. coli; label from the status in PepcDB or PDB records

Sequence | soluble on expression in E. coli
MVMRYSLKQLAVFDAVATTGSVSQAAELLSLTQSATSMSLSQLEKMLGRSLFERHGKRMALTHWGVWLRPKAKKLIHDAQQIELGFYDQHLISGEISLGASQTAAEHLVPNLISNIDNDFPEIRISLGVKNTSGIIEGVLDYKYELGIIEGRCDDSRIHQEVFCTDHLIIVAAAHHPFAKHEKVSLAQLEQAKWVLREHGAGTRTIFDSAIHGKIPDLDVWREYEYVPVLRTLVANGQYLSCLPYLDVVKYIERGELVALNVPELNMERTLSFIWRSSMDQNPISDCIRREGIRMIKNHNVIR | not soluble
MAHHHHHHMQCSSLKTGCLKLLSQLPEGLQQAGRTAVSAHQRSYCPYSNFAVGAALLHDDGKVTSGCNYETCVYKGTCAEACAIVKANMDGYRTAQAVAIYGRSVLPTAAAAAADATVPPCGFCRQLLAEVADLSGNMNDFLVVLVTFDQEHARLFRLSELLPQPFGPSSIGMDVAALATGEHSRCPGTF | not soluble
MSLTHTSDKHVTDEELELVTRGKADGIYMKAPNGSPTSLNERQWVQVRTRAFKNWFGDWENVPEAASRIPDDKYGNEQWTEEGYVYDLYVNSRNPFDPKDGQAVKKILQSLGSEIPVLSFYGGKGGTVSPEKALELASSKRNCWMLTETPEFLSKVREAGYDGLVGYDEGVKYIAVMSPGQLKDAYENTGAFSTSNDDIRFRQVYHGSPASLGHFDHAFTGTGEGAQAYGWGTYVTEVKGIARKYAAIGIKRGNHITYDGEPLSPVLDNEYYFDEVWRIWKRQILSSTDVDSLKRNISSVYMDGRTASAYSGRRKAFERQKQELLSDIDAGRIRIEPPRHLYTVEIPEDNGMNYLYWDRPVSAEQQGKIFLQLRKERFFFPEATAEFWSGRSHVWNSGKEFYGFLDYMFMNPDRDTDSQRLASGFLSRAGFTGIDYPAECSTGGRADGARNYVIFSEADLKITAHERFRFIGEKGASRLDRSEGASLRLENLAVAREMEKSGKDAGTIKAATGWERGADSKWRYETADFEYHPAGDLGYSRLLEKQSWHGELENLLDRQIEGETLSEAEWKRFEKLTELAAGLKEQDALRERIYLDDYVKDDELFQAYPEMKRTRLEFVDLPSADYCGGYLHPDNRIVINISRTDDVRSVLAHEIQHAIQTMEGFARGSNPGEFKNTVENVILDIVRATDGRILEGGGFDNTPKGIFAALDRKVPYGTILRHYDYPLSLVAEKYGYENIFDLVNDIGRFKSGIQEYRSTAGEVEARNVESRLDFTSAQRRNTLAVSTEDIARNGQIFLSRDVRMDELARHVSFLAGKLHIPVEVIRHADEVGSPDIRGLLSCGKDIRGWYDIPSQRVCLYLPHVRGKADVERTLLHEGVAHYGLRKLAGHKHMDAFLDDIFNGCGEKVRDEILRMAAADRTDIRVATEEYLARMAEDGTDQSLWDRIVTAFRNLLRKLGFCLEIGTRELRGILAASRKNLIGIAEPTVIQTARGDLELSCGYGRAVLRRQGVETDVTSLLERMRKAGISPASLGQEDWKAVFNGGIILPGGRKLMAVREPAGYGMRISGVSPGSTREGHHHHHH | soluble
MSLKITRIDIHRTDLPVRGGVYRLSGGREYHSYDATIVSIETDTGLTGWGESTPFGSTYIAAHAGGTRAALELLAPAILGMDPRQHDRIWDRMRDTLKGHRDARAALDIACWDIAAQAAGLPLCDMTGGRVAGPVPVISSIGGDTPEAMRAKVARHRAQGFKGHSIKIGASEAEGGPALDAERITACLADRQPGEWYLADANNGLTVEHALRMLSLLPPGLDIVLEAPCASWAETKSLRARCALPLLLDELIQTETDLIAAIRDDLCDGVGLKVSKQGGITPMLRQRAIAAAAGMVMSVQDTVGSQISFAAILHLAQSTPRHLLRCALDTRAMTTAELAEIDAPLRDGGASAPSDPGLGLRVNRDALGTPVKTFGDPIEGHHHHHH | soluble
MSLVNQLSLFIDVVQQGSFTKAAALHDMDNSALSKQIKKLEAELGVQLLNRSTRTFSLTPAGEEILEQAYQLVGSLDNVKSIADSYQAVPKGRIRITAPLHIGQGYLQPVISQFMTTYPDVEVVLMMDDKRSDIISEHFDVAFRLGRLDDSSLIAKKVADIRGVILASHSLIERFGEPSTPEELVNLPSVIYSNGTLTVDTVRLGESPDSSQFKSYKMKGNYKVNDVRTLLSAVQDGLGYAVVASSNLERSIESMGLTTLLTDYPLCNQGLAIYALYPHRKQTALVREFISAVQKHIGHPPLWEQHIPNFASLYPVKKGQ | not soluble
MQNLRTDVLIIGGGEAGLVAGCRALTMGQKVILVEKNGYLGGATILNGSNVVGTGSDVAAQIFDNNHDTPEMLAQDVARESLETNYPALTDLMVHNIGPAIDFISKFADLHYQKAQTQTPEHSINRQIELPSASSYEFIQKVSKAFAAAGGQIMLDTRVEKLMLDNDKKLRGVIAAQKDQTVNIKARSVVLAAGGHGANQKMRGTESEGIDYYGPMTSTGDAYQFNGDLDLQTHDLGWYKLYPHGVEVEPGVAKLTTYASKQATDMGAIYVNSKGDRIVNESNVYTTFRNAILKQADKVAYLVMDERTWKKVYDLLILHDFTPEEIKSFFENKGKRPVFVKGSLESAAEQAGIVVDELVQTVKNYQGYVQDGHDHDFGRDPKYLHQFEGETFYIIEQRDRFATTLGGYSVDADNLQLVTTKNAPVANYFGAGEIIGGANGHDSMPSMMNTWGISSGYVAGAAASENAQRQATAGAAALEHHHHHH | soluble
MYDYGTFAFASKADVLDQAKAFWNPDKTQFWTDSGVDLVIDRREGYFLWDMSGRRLIDLHLNGGTYNIGHRNPEVMQAISEGMAHFDVGNHHFPSVARTALAKRLVETAPASIKKVAFGSGGGEAIDIALKSARHGTQRRKIVSVIKAYHGHTGLAVATGDDRFAKLFLADRPDEFIQVPFGDIGAMEAALAGGDVAAVIMETIPATYGFPLPPPGYLEAVKALTERHGTLYIADEVQTGLMRTGELWGITKHGIDPDIIVTGKGLSGGMYPISAVLLGERAARWLDQDGFGHISTFGGAELGCVAAIKTLEICTRPEVRSMVHYIADIFDTGLRRIQADYPDWFVGIRQNGVVIGLEFDHPEGAKFVMRELYENGVWAIFSTLDPRVLQFKPGLLLSRELCEDVLDRLEVAVGRARATVTGRRNG | not soluble
MGSDKIHHHHHHMQFGAKPLFENISVKFGGGNRYGLIGANGCGKSTFMKILTGDLEPSSGNVSLDVNERMGKLNQDQFAYEKFSVVDTVIMGHRELWKVKQERDRIYSLPEMTEEDGIKVSELEMEFAEMDGYTAESRAGDLLLGVGIGTEQHFGLMSQIAPGFKLRVLLAQALFSDPDLLLLDEPTNNLDIDTIRWLQDMLNQRNSTMVIISHDRYFLNSVCTHMADLDYGELRVYPGNYDEYMMAATQARERLQSDNAKKKAQIAELQTFVARFSANASKAKQATSRAKQIDKIKLDDIKASSRVNPFIRFEQEKKLFRNALIVENLAKGYDKPLFSNLNLMVEVGERIAILGENGVGKTTLMRTLVHDIPQDEGTIQWSENANIGYYAQDHEADFANDMTLFDWMSQWRKPEDDDQSVRAILGRMLFGSDDIKKSVTVLSGGEKGRMYFGKLIMQKANILMLDEPTNHMDMESIESLNNALEMYEGTLMFVSHDRAFVSSLATRILEVTANGVNDFKGTYDEFLRSKGIDA | not soluble
AHHHHHHGSETEEIEAPKKKVPLAMVTIRPAKLFDIPYIMRIEQMSFKEAYPRGLFLTFLEANPDTFLVAEYNGKIVGYVMGYLRPDMEGHIMSIAVHPDYRGNGIGKALMIAVIKKLFEKGARWIGLEVRVSNYRAINLYKKLGFKIVKRIISYYSDGEDAYYMILRPEDFERVILS | not soluble
MNSEIFRIFRKKYSEEIRNPPMNATTLPEALKLMQYIGDAIGTIRDPQELFRTVTDKLRLLFAFDSAVIITIDRERREASVFFEMLRFELPEQLRHQTRSIAGTWLEGHLDDRTVTVASIARDIPSFGADGAPLLWTLHELGMRQIVLSPLRSGGRVIGFLSFVSAEEKLWSDGDKSLLSGVSSSIAIAVSNALAYEELRQRE | not soluble
KLLAITSCPNGIAHTYMAAENLQKAADRLGVSIKVETQGGIGVENKLTEEEIREADAIIIAADRSVNKDRFIGKKLLSVGVQDGIRKPEELIQKALNGDIPVY | soluble
YAYKSNTYFKLKKKNIKLNGNIIKKSCKLGIPVALQNSLIAFSLIVLQKVVNGYGATFTTAFTVVSRIETLVQQPFMSLGAAVSTYTGQNIGAGLKDRVRKGFN | not soluble
MGSDKIHHHHHHMPATVPFVGPEAIERQRNLPVKARIGANESGFGPSPKVHLALQAASSDIWKYADPENFDLKAALAAHYGLAADNFAVGEGVDDLLGLTVRLVIEQGLPVVTSLGGYPTFNFHVNGFGGQLVTVPYRQDREDLDGLLEAVRRENAPLAYLANPDNPMGSWHESHDVVAFARALPETCLLILDEAYSETAPAGSIPAVDALIDLPNVLRMRTFSKAYGLAGARIGYAIGTPGTVSAFDKIRNHFGMVRTSVAAALAALADQDYLTATVARIIAARERISSIARQNGLQPLASATNFVAVDCGRDPAYARSIVDGLMQHGVFIRMPGVAPLNRCIRISAGLPEDLDLLEQALPIVLRDIG | not soluble
MGSDKIHHHHHHMAKVPAKAKPEHALLAVPRELMPRDLRVSLHDYTRGGTDRFLTNGQGAKQDMTGFEDQYVNIIDYIVRITHRIWEEKDIGYIYDTYAHNCRVWDDVGLQYGRDKIVADTTHTINAFPDVKLYADEVIWAGDAEHGFHTSHRTVIKGTNTGFSRWGPPTMRPVNVWCIANCVARENEIFEEHVQYNLGAMLQQLGFDLRALAATARAIGIETDPLFAASGRTRVPGQGKPAHGTPRGDGPFDVADFLCSMTQDVWNRRMLSRLTRAYAPALNYQGPTNRSYRSLAQYQSALLSLLAMFPDLSFEPEALYYMEDGKGTTWSSLRWSATGSHGGFGPYGTPTGREVRIWGITQHKIEGETITEEWMQFNEFDLLRQLAPDPVV | not soluble
MAHHHHHHMTTYTLVLLRHGESTWNKENKFTGWTDVPLSEKGEEEAIAAGKYLKEKNFKFDVVYTSVLKRAICTAWNVLKTADLLHVPVVKTWRLNERHCGSLQGLNKSETAKKYGEEQVKIWRRSYDIPPPKLDKEDNRWPGHNVVYKNVPKDALPFTECLKDTVERVLPFWFDHIAPDILANKKVMVAAHGNSLRGLVKHLDNLSEADVLELNIPTGVPLVYELDENLKPIKHYYLLDSEELKKKMDEVANQGKAK | soluble
MMKNPNDIGFIHDISSLDSLRQKAVKEGKDGEQEALHAAARQFESIFTSMMLKSMREANEGFESNIMNSQNEKFYRQMLDEQMASELSANGSMGLADMIVAQLTAGQGNDKSETAMRDAANSAVEYRRVDPKKAREIEKRLIESGELSRTSHTPAKFDSPESFVNSMKPYAEKAAKALGVEPSLLLAQAALETGWGQKVVQNARGSSNNLFNIKADRSWQGDKVTTQTLEFHDNTPVKETAAFRSYSNYQDSFNDYVRFLNDNPRYETALQQRGDSESFIRGIHRAGYATDPTYADKVLQVKQKIESM | not soluble
MTSILNPVIRKEYSELKRPDLRGKFICASCGQHFQHNASLNRHRRLLHGNEHTCMMCDRKLNAKETIRDHMRNEHNLFQVFTCGCCNWSFSSKRQLSEHTKCIQGTGAPGDTIPIAKSCNAPGSLIQSTIQGTPPVVKTGRKRGGSLSSSSSVSTSISSRDVSGSPPPTEEEAERKVLFDNAVDTILQSKFFTYQQITEVDTWIKIIENANTLADTLQRINKTKKIKAEMPADKDVKRFKLEVE | not soluble
MMLITTSHRPTRRTRSFGHDLERVIPNSLYLTRGKKTIQELLMEAYDRGYERLLIINVWKGNPLKMTFIKVHPEDWGYLGYLYLHGVKLQREMGFKGLNPIREDMPLVITTAKRVGLDHLAFAQVFSELTTGKFVPRGDKSLLSIADRYNTDVLAVIERHPRGIVINFYRLDITKDRPVGPLINVKIWIMEDGRRWDYKEAFGIKVPPRRREFEGKRGEGKNSDLEHHHHHH | not soluble
MSLNPPLPHFRYHPEPLASGSIEASATTCQCCGKARGYVYTGSPYSRHELPPGSLCPWCIADGSAAARYEASFSDDYPLLDAGVAADIVTEVCERTPGYTSWQRERWLVCCEDACAFRGDAGREEIGQLGAEGLAQRFADFAWPAITWQRLVDAYTPGGNPAIYRFDCLHCGQAHYDLDFTEGGSHHHHHH | soluble
